The values below come from US20240327514A1 (Janssen / Centocor, published 2024).

This assay deals with T1, human CD123 (human, UniProt P26951 19-378).
T1 construct: whole, on cells; Target presented on CD123+ AML cell lines; also called CD123 on CD123+ AML cells
The assay can be described thus: flow cytometry on tumor cell lines, detection with mouse anti-human IgG4. As for the experimental part:
All tumor cells were centrifuged, washed twice with Dulbecco's phosphate-buffered saline (DPBS) and 1×10^4 cells were added to the center of each well of a 96 well U bottom plate along with fragment crystallizable (Fc) block (human IgG1 fragment) which was added at 2 mg/mL for 10 minutes. Serially diluted bispecific antibodies were added to the appropriate wells. Plates were incubated in the dark at 37° C. with 5% CO₂ for 4 hours. The cells were then washed with DPBS and binding of the bispecific antibody was detected by staining with mouse anti-human IgG4 (Southern Biotech, clone HP6025, catalog #9200-09) and LIVE/DEAD (L/D; Invitrogen, catalog #L34976) for 30 minutes. Finally, cells were washed, resuspended in stain buffer, and analyzed on the FACSCanto II flow cytometer (BD Biosciences). Geometric mean fluorescence intensity (gMFI) was plotted in Prism version 7 (GraphPad). The X axis was log transformed and a 4 parameter non-linear curve fit was applied.

T1 sequence (P26951 19-378): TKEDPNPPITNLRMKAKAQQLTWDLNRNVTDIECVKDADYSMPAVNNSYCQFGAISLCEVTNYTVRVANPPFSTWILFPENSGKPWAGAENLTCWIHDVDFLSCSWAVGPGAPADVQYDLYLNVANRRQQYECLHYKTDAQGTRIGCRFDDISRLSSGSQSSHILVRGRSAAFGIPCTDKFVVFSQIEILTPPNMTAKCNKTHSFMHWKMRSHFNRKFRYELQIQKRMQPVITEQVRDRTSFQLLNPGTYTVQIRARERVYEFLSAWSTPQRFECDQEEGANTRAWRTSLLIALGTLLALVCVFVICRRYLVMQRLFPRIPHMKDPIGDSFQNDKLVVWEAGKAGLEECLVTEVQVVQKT

B1: CD123×CD3 bispecific antibody (bispecific antibody, human IgG4 S228P, kappa, lambda, F234A L235A)
heavy 1: not shown
light 1: EIVLTQSPGTLSLSPGERATLSCRASQSVSSSYLAWYQQKPGQAPRLLIYGASSRATGIPDRFSGSGSGTDFTLTISRLEPEDFAVYYCQQDYGFPWTFGQGTKVEIKRTVAAPSVFIFPPSDEQLKSGTASVVCLLNNFYPREAKVQWKVDNALQSGNSQESVTEQDSKDSTYSLSSTLTLSKADYEKHKVYACEVTHQGLSSPVTKSFNRGEC
heavy 2: EVQLVESGGGLVQPGGSLKLSCAASGFTFNTYAMNWVRQASGKGLEWVGRIRSKYNAYATYYAASVKGRFTISRDDSKNTAYLQMNSLKTEDTAVYYCTRHGNFGNSYVSWFAYWGQGTLVTVSSASTKGPSVFPLAPCSRSTSESTAALGCLVKDYFPEPVTVSWNSGALTSGVHTFPAVLQSSGLYSLSSVVTVPSSSLGTKTYTCNVDHKPSNTKVDKRVESKYGPPCPPCPAPEAAGGPSVFLFPPKPKDTLMISRTPEVTCVVVDVSQEDPEVQFNWYVDGVEVHNAKTKPREEQFNSTYRVVSVLTVLHQDWLNGKEYKCKVSNKGLPSSIEKTISKAKGQPREPQVYTLPPSQEEMTKNQVSLTCLVKGFYPSDIAVEWESNGQPENNYKTTPPVLDSDGSFLLYSKLTVDKSRWQEGNVFSCSVMHEALHNHYTQKSLSLSLGK
light 2: QAVVTQEPSLTVSPGGTVTLTCRSSTGAVTTSNYANWVQQKPGQAPRGLIGGTNKRAPGTPARFSGSLLGGKAALTLSGAQPEDEAEYYCALWYSNLWVFGGGTKLTVLGQPKAAPSVTLFPPSSEELQANKATLVCLISDFYPGAVTVAWKADSSPVKAGVETTTPSKQSNNKYAASSYLSLTPEQWKSHRSYSCQVTHEGSTVEKTVAPTECS
notes: also called CD123xCD3 DuoBody antibody
In the case of B1, the binding result is listed as “binds”.
